Measured values taken from publication PMC11778176, “The IclR-family transcriptional regulator XyrR controls flotation, motility, antibiotic production and virulence in Serratia sp. ATCC 39006”.

Target: T1, IclR (XyrR, XynR homolog) (Serratia sp. ATCC 39006, UniProt A0A2I5T4I6 1-255)
T1 sequence: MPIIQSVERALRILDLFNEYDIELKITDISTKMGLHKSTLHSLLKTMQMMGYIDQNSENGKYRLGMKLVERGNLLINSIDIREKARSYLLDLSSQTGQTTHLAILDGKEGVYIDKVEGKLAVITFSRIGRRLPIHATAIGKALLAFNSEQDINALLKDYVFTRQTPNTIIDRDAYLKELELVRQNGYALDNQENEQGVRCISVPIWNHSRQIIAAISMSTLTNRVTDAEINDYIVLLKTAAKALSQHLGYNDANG
Assay: EMSA; complete shift at 0.8 uM IclR (stated protein:DNA 32:1; Methods state probe 5 nM); 10 mM Tris-HCl pH 8, 5 mM DTT, 50 mM KCl, 1 mM MgCl2, 10% glycerol, 0.1% Triton X-100, 30 min at 20 C; 5 nM probe
Settings: protein: recombinant; tags: 6xHis (pQE80); chain copies: 2; label: Cy5 on LUEGO strand (S13); three strands: S15 (long) pairs with S13 followed by S14; nick between S13 and S14; blunt

B1: yagE promoter LUEGO probe (dsDNA)
DNA 1: CACCACAAATTGCAGTGTTAGTATCATTTCGTTAATGTAGAACTTAGTTCTATAATATAAAACAAAATATCAATGAAGATCGACTGACACATATCGATTGTTGTGA
DNA 2: TCACAACAATCGATATGTGTCAGTCGATCTTCATTGATATTTTGTTTTATATTATAGAACTAAGTTCTACATTAACGAAATGATACTAACACTGCAATTTGTGGTGCCAGACCAGGGCAC
DNA 3: GTGCCCTGGTCTGG
Q: Does B1 bind?
A: binds
